This is an account of results in US10138466B2, “Compositions and methods for differentiating stem cells into cell populations comprising beta-like cells” (REGENERATIVE MEDICAL SOLUTIONS, INC., priority 2014, dated 2018).

The subject of the test is hESCs. Put plainly: Activin A alone in serum-free medium, pancreatic cell differentiation. The note with it: Activin A at 5 ng/ml, 50 ng/ml, or 100 ng/ml in serum-free medium. The format is cell-based, human. An excerpt: Activin is a member of the TGF-β superfamily and has various effects on diverse biological systems (Abe Y, et al. Growth Factors 2004 June; 22(2):105-10; herein incorporated by reference in its entirety). Activin A has been reported to have a role in the induction of definitive endoderm from hESCs (D'Amour, K. A., et al. (2005); herein incorporated by reference in its entirety).

B1: Activin A: member of the TGF-β superfamily (protein, UniProt P08476 311-426, looked up)
Inhibin beta A chain: GLECDGKVNICCKKQFFVSFKDIGWNDWIIAPSGYHANYCEGECPSHIAGTSGSSLSFHSTVINHYRMRGHSPFANLKSCCVPTKLRPMSMLYYDDGQNIIKKDIQNMIVEECGCS
modifications: Inhibin beta A chain
notes: member of the TGF-β superfamily
For B1, the “induction of pancreatic cell differentiation” value was “cannot induce pancreatic cell differentiation”.
